Source: PMC8278322 (Cancer research, 2020)

Molecular target: T1, Gal4-fused SMAD4 (UniProt Q13485 1-552)
T1 sequence (looked up): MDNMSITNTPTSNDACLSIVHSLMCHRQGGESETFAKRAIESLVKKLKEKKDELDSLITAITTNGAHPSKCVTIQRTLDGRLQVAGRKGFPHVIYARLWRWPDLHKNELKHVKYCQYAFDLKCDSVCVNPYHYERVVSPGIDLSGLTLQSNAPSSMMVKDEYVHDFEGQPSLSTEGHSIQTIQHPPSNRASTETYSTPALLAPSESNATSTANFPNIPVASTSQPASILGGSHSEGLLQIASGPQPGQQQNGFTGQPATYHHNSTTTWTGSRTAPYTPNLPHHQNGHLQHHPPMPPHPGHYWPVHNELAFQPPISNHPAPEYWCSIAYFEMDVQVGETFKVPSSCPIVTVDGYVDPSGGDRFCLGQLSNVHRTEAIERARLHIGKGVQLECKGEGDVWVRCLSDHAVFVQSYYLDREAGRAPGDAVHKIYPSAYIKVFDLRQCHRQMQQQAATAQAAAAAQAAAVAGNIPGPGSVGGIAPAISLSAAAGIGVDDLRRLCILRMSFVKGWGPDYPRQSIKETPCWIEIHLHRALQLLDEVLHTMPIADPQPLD
Test: two-hybrid

B1: pVP16-fused FOXL2^C134W (natural protein, human, UniProt P58012 1-376, looked up)
chain: MMASYPEPEDAAGALLAPETGRTVKEPEGPPPSPGKGGGGGGGTAPEKPDPAQKPPYSYVALIAMAIRESAEKRLTLSGIYQYIIAKFPFYEKNKKGWQNSIRHNLSLNECFIKVPREGGGERKGNYWTLDPAWEDMFEKGNYRRRRRMKRPFRPPPAHFQPGKGLFGAGGAAGGCGVAGAGADGYGYLAPPKYLQSGFLNNSWPLPQPPSPMPYASCQMAAAAAAAAAAAAAAGPGSPGAAAVVKGLAGPAASYGPYTRVQSMALPPGVVNSYNGLGGPPAAPPPPPHPHPHPHAHHLHAAAAPPPAPPHHGAAAPPPGQLSPASPATAAPPAPAPTSAPGLQFACARQPELAMMHCSYWDHDSKTGALHSRLDL
With B1 the “fold luciferase activity against pVP16-fused wildtype FOXL2” value was about 20 fold.
